The experiment has as its target human CD37 (human) (UniProt P11049). The experiment in a line: flow cytometry on Ramos cells (HEK293 supernatants), MFI normalised to chHH1-DOTA. For orientation: In flow cytometry, cells or beads pass a laser one at a time.

human CD37 (human), sequence (P11049 whole entry): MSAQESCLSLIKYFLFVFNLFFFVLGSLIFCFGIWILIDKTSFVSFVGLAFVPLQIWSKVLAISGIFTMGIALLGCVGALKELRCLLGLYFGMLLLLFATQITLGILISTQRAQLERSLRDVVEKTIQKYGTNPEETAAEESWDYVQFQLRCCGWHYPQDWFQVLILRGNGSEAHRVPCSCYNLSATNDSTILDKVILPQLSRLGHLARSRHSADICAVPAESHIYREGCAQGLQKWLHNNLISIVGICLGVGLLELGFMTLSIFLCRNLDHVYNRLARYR

B1: HC1 + LC1 (antibody, human IgG1, V domains shown)
VH: QVQLVQSGAEVKKPGASVKVSCKASGYSFTDYNMYWVRQAPGQRLEWMGYIDPYNGDTTYNQKFKGRVTITRDTSASTAYMELSSLRSEDTAVYYCARSPYGHYAMDYWGQGTLVTVSS
VL: DIQMTQSPSSLSASVGDRVTITCKASQDVSTAVDWYQQKPGKAPKLLIYWASTRHTGVPSRFSGSGSGTDFTLTISSLQPEDFATYYCRQHYSTPFTFGQGTKLEIK
Molecule B1 displayed a Normalized average binding (%) of 40%.

The record behind these values is patent US20250333531A1.
